Laboratory results published in patent US20180353567A1 (THOMAS JEFFERSON UNIVERSITY, published 2018).

Legend:
[1] = biological target: β2AR-Renilla Reniformus luciferase II fusion (UniProt P07550 1-413); assay: cell-based or functional assay
FLAG-β2AR = FLAG-β2AR (UniProt P07550 1-413, limits assumed); assay: cell-based or functional assay

| EC50 of β-arrestin2 recruitment to the β2AR (BRET) [1] | cAMP production in HEK293 cells stably overexpressing FLAG-β2AR (FLAG-β2AR) | Binder |
| --- | --- | --- |
| 1100 nM | – | LVITAIAKFERLQTVT (HELM PEPTIDE1{[CCCCCCCCCCCCCCCC(=O)[*:2]].L.V.I.T.A.I.A.K.F.E.R.L.Q.T.V.T.[am]}$$$$V2.0; SMILES CCCCCCCCCCCCCCCC(=O)N[C@@H](CC(C)C)C(=O)N[C@H](C(=O)N[C@H](C(=O)N[C@H](C(=O)N[C@@H](C)C(=O)N[C@H](C(=O)N[C@@H](C)C(=O)N[C@@H](CCCCN)C(=O)N[C@@H](Cc1ccccc1)C(=O)N[C@@H](CCC(=O)O)C(=O)N[C@@H](CCCNC(=N)N)C(=O)N[C@@H](CC(C)C)C(=O)N[C@@H](CCC(N)=O)C(=O)N[C@H](C(=O)N[C@H](C(=O)N[C@H](C(N)=O)[C@@H](C)O)C(C)C)[C@@H](C)O)[C@@H](C)CC)[C@@H](C)O)[C@@H](C)CC)C(C)C) [ICL1-20] |
| 1700 nM | ~2 fold increase over vehicle | TAIAKFERLQTVTNYF (HELM PEPTIDE1{[CCCCCCCCCCCCCCCC(=O)[*:2]].T.A.I.A.K.F.E.R.L.Q.T.V.T.N.Y.F.[am]}$$$$V2.0; SMILES CCCCCCCCCCCCCCCC(=O)N[C@H](C(=O)N[C@@H](C)C(=O)N[C@H](C(=O)N[C@@H](C)C(=O)N[C@@H](CCCCN)C(=O)N[C@@H](Cc1ccccc1)C(=O)N[C@@H](CCC(=O)O)C(=O)N[C@@H](CCCNC(=N)N)C(=O)N[C@@H](CC(C)C)C(=O)N[C@@H](CCC(N)=O)C(=O)N[C@H](C(=O)N[C@H](C(=O)N[C@H](C(=O)N[C@@H](CC(N)=O)C(=O)N[C@@H](Cc1ccc(O)cc1)C(=O)N[C@@H](Cc1ccccc1)C(N)=O)[C@@H](C)O)C(C)C)[C@@H](C)O)[C@@H](C)CC)[C@@H](C)O) [ICL1-11] |
| 1900 nM | – | VITAIAKFERLQTVTN (HELM PEPTIDE1{[CCCCCCCCCCCCCCCC(=O)[*:2]].V.I.T.A.I.A.K.F.E.R.L.Q.T.V.T.N.[am]}$$$$V2.0; SMILES CCCCCCCCCCCCCCCC(=O)N[C@H](C(=O)N[C@H](C(=O)N[C@H](C(=O)N[C@@H](C)C(=O)N[C@H](C(=O)N[C@@H](C)C(=O)N[C@@H](CCCCN)C(=O)N[C@@H](Cc1ccccc1)C(=O)N[C@@H](CCC(=O)O)C(=O)N[C@@H](CCCNC(=N)N)C(=O)N[C@@H](CC(C)C)C(=O)N[C@@H](CCC(N)=O)C(=O)N[C@H](C(=O)N[C@H](C(=O)N[C@H](C(=O)N[C@@H](CC(N)=O)C(N)=O)[C@@H](C)O)C(C)C)[C@@H](C)O)[C@@H](C)CC)[C@@H](C)O)[C@@H](C)CC)C(C)C) [ICL1-4] |
